Reference: article PMC4856543
pKd: −log10 of the molar value.

Legend:
[1] = molecular target: single-chain gp120BaL-sCD4 complex (full-length single-chain) (HIV-1 isolate BaL | not stated); test: SPR; Biacore T-100, 25°C, 1:1 Langmuir model
[2] = molecular target: monomeric full-length BaL gp120 (HIV-1 isolate BaL); test: SPR; Biacore T-100, 25°C, 1:1 Langmuir model
[3] = molecular target: ID1 (independent inner domain of gp120, first design, isolate 93TH057) (HIV-1 clade A/E isolate 93TH057); test: SPR; Biacore T-100, 25°C, 1:1 Langmuir model
[4] = molecular target: single-chain gp120BaL-sCD4 complex (full-length single-chain) (HIV-1 isolate BaL | not stated); test: ITC; iTC200, 25°C, A32 IgG with FLSC or ID2; heats of dilution subtracted
[5] = molecular target: ID2 (inner domain of gp120 stabilized by the C65-C115 disulfide, isolate 93TH057), from 293 cells (HIV-1 clade A/E isolate 93TH057); test: as above
[6] = molecular target: ID2, stabilized inner domain of HIV-1 gp120 of clade A/E isolate 93TH057 (HIV-1 clade A/E isolate 93TH057); test: SPR; antibody immobilised, ID2 passed over at 0-200 nM; Biacore T-100, 25°C; 1:1 Langmuir model, BIAevaluation software; two experiments

**Q.** mAb A32 (antibody) was tested. Which pKd [1] did it give?
**A.** Its pKd is 9.64.

**Q.** What about the koff [1] of the same substance?
**A.** The koff was 0.000102 s⁻¹.

**Q.** What about the kon [1] of the same substance?
**A.** Its kon is 443000 M⁻¹ s⁻¹.

**Q.** What about the pKd [2] of the same substance?
**A.** Its pKd is 8.49.

**Q.** And the koff [2]?
**A.** The koff was 0.000437 s⁻¹.

**Q.** What about the kon [2] of the same substance?
**A.** The kon was 139000 M⁻¹ s⁻¹.

**Q.** And the pKd [3]?
**A.** The pKd was 8.03.

**Q.** And the koff [3]?
**A.** The koff was 0.000785 s⁻¹.

**Q.** And the kon [3]?
**A.** The kon was 85000 M⁻¹ s⁻¹.

**Q.** And the pKd [4]?
**A.** The pKd was 7.94.

**Q.** And the dH [4]?
**A.** Its dH is -3.15 kcal/mol.

**Q.** And the pKd [5]?
**A.** Its pKd is 8.05.

**Q.** What about the dH [5] of the same substance?
**A.** The dH was -2.55 kcal/mol.

**Q.** What about the pKd [6] of the same substance?
**A.** Its pKd is 9.77.

**Q.** And the koff [6]?
**A.** Its koff is 0.000275 s⁻¹.

**Q.** What about the kon [6] of the same substance?
**A.** The kon was 1.65e+06 M⁻¹ s⁻¹.
